Target: AAV capsid expressed by the standard BEV1 infection and the v-cath deleted BEV2 infection in Sf9 cells

B1: V-CATH protease (Viral Cathepsin), encoded by the baculovirus v-cath gene of the BEV (protein)
chain: PLEFDWRRLNKVTSVKNQGMCGACWAFATLASLESQFAIKHNQLINLSEQQMIDCDFVDAGCNGGLLHTAFEAIIKMGGVQLESDYPYEADNNNCRMNSNKFLVQVKDCYRYITVYEEKLKDLLRLVGPIPMAIDAADIVNYKQGIIKYCFNSGLNHAVLLVGYGVENNIPYWTFKNTWGTDWGEDGFFRVQQNINACGMRNELASTAVIY
In the case of B1, the “degradation products of the AAV capsid on Western immunoblot (BEV1 against v-cath deleted BEV2)” value is reported as “Deletion of v-cath eliminated the degradation products”.
